Results from patent publication US20210398607A1, “METHODS FOR DESIGNING ANTIBODY SMALL-MOLECULE CONJUGATES” (priority 2020, published 2021).
Entries after “also recorded” stand apart in the source; their conditions may differ.

B13: mSA (monomeric streptavidin construct), wild type (other)
chain: HHHHHHSQDLASAEAGITGTWYNQSGSTFTVTAGADGNLTGQYENRAQGTGCQNSPYTLTGRYNGTKLEWRVEWNNSTENCHSRTEWRGQYQGGAEARINTQWNLTYEGGSGPATEQGQDTFTKVKPSAASGSDYKDDDDK
notes: also called mSAWT

Columns and labels:
[1] = molecular target: mSA (monomeric streptavidin, mSAWT) (Streptomyces avidinii; Rhizobium etli, UniProt P22629+Q8KKW2); experiment: SPR binding against mSAWT; conditions: for koff / dissociation rate, in words: mSAWT
Source text: Smt3 SUMO protein has an unstructured N-terminus and it was hypothesized this would minimize the interaction between the protein components.

[2] = for aggregation / monomer stability on SEC: SEC traces
Experimental: Two additional rounds of CDR residue mutability analysis were performed followed by in-parallel combinatorial designs on v149 until no further CDR mutations were predicted to be energetically favorable. Mutations accumulated in previous rounds of design were kept intact in subsequent rounds.

[3] = molecular target: B13; experiment: SPR, conjugate injected at 0.5, 1, 2.5, 5, 10 nM over immobilized mSAWT; fit curve
[4] = molecular target: B13; experiment: SPR, single-cycle injections of 1, 2.5, 5, 10 and 20 nM conjugate over immobilized mSAWT; fit curve
[5] = molecular target: T1, N-terminal biotinylated Smt3 SUMO protein (UniProt Q12306 2-98 = SUMO); experiment: SPR, Biotin_SUMO injected at 2.5, 10, 20, 50, 80 nM over immobilized mSAWT; fit curve; replicate 2
[6] = molecular target: T1, N-terminal biotinylated Smt3 SUMO …; experiment: SPR, Biotin_SUMO injected at 2.5, 10, 20, 50, 80 nM over immobilized mSAWT; fit curve; one of three replicates
[7] = molecular target: T1, N-terminal biotinylated Smt3 SUMO …; experiment: SPR, Biotin_SUMO injected at 2.5, 10, 20, 50, 80 nM over immobilized mSAWT; fit curve; replicate 3
[8] = molecular target: B13; experiment: SPR

B1: Wildtype 4NBX.B: nanobody scaffold, chain B of PDB structure 4NBX, SEQ ID NO:1, unconjugated (protein)
VHH: QVQLQESGGGLAQAGGSLRLSCAASGRTFSMDPMAWFRQPPGKEREFVAAGSSTGRTTYYADSVKGRFTISRDNAKNTVYLQMNSLKPEDTAVYYCAAAPYGANWYRDEYAYWGQGTQVTVSSHHHHHH
modifications: 4NBX.B-WT
With B1 as the molecule, how does the “binding signal to mSA” value ([1]; concentrations up to 100 nM) read?
The value was “did not show binding signal”.

B2: 4NBX.B-biotin103 v119: 4NBX.B-biotin103 with M31H/D32A/N104S/W105H, SEQ ID NO:3 (conjugate)
VHH: QVQLQESGGGLAQAGGSLRLSCAASGRTFSHAPMAWFRQPPGKEREFVAAGSSTGRTTYYADSVKGRFTISRDNAKNTVYLQMNSLKPEDTAVYYCAAAPYGCSHYRDEYAYWGQGTQVTVSSHHHHHH
For B2, which “aggregation / monomer stability on SEC” value [2] is on record?
Its value is “single peaks”.

And the “koff / dissociation rate, in words” value [1]?
The value was “only minimally different”.

B3: 4NBX.B-biotin103: nanobody 4NBX.B A103C (SEQ ID NO:2) conjugated with biotin C2 maleimide at site 103 (conjugate)
VHH: QVQLQESGGGLAQAGGSLRLSCAASGRTFSMDPMAWFRQPPGKEREFVAAGSSTGRTTYYADSVKGRFTISRDNAKNTVYLQMNSLKPEDTAVYYCAAAPYGCNWYRDEYAYWGQGTQVTVSSHHHHHH
For B3, which “aggregation / monomer stability on SEC” value [2] is on record?
Its value is “single peaks”.

B4: 4NBX.B-biotin103 v149: 4NBX.B-biotin103 with M31R/D32S/N104A/W105R, SEQ ID NO:4; the WT line of Table 3 (conjugate)
VHH: QVQLQESGGGLAQAGGSLRLSCAASGRTFSRSPMAWFRQPPGKEREFVAAGSSTGRTTYYADSVKGRFTISRDNAKNTVYLQMNSLKPEDTAVYYCAAAPYGCARYRDEYAYWGQGTQVTVSSHHHHHH
Which “aggregation / monomer stability on SEC” value [2] does the source give for B4 here?
Its value is “very prone to aggregation”.

B5: 4NBX.B-biotin103 v186: v149 plus Y101L/R107F/R56T/Y106K/D108A/Y110S, SEQ ID NO:5; the WT line of Table 2 (conjugate)
VHH: QVQLQESGGGLAQAGGSLRLSCAASGRTFSRSPMAWFRQPPGKEREFVAAGSSTGTTTYYADSVKGRFTISRDNAKNTVYLQMNSLKPEDTAVYYCAAAPLGCARKFAESAYWGQGTQVTVSSHHHHHH
With B5 as the molecule, how does the “aggregation / monomer stability on SEC” value [2] read?
The value was “even worse aggregates formation than v149”.

And the “KD / measured affinity against mSAWT, comparison in words” value (“KD / measured affinity against mSAWT” below) [1]?
Its value is “very similar KD as v149”.

B6: 4NBX.B-biotin103 v186_Fr: v186 plus framework mutations A12V/F37Y, SEQ ID NO:6 (conjugate)
VHH: QVQLQESGGGLVQAGGSLRLSCAASGRTFSRSPMAWYRQPPGKEREFVAAGSSTGTTTYYADSVKGRFTISRDNAKNTVYLQMNSLKPEDTAVYYCAAAPLGCARKFAESAYWGQGTQVTVSSHHHHHH
For B6, which “aggregation / monomer stability on SEC” value [2] is on record?
The value was “significantly reduced aggregation”.

What about the “re-aggregation of collected fractions excluding the aggregates peak” value ([2]; rerun on SEC) of the same molecule?
The value was “did not re-aggregate”.

B7: 4NBX.B-biotin103 v186_Fr + 1: v186_Fr with biotin103 moved to +1 position on CDR3, SEQ ID NO:7 (conjugate)
VHH: QVQLQESGGGLVQAGGSLRLSCAASGRTFSRSPMAWYRQPPGKEREFVAAGSSTGTTTYYADSVKGRFTISRDNAKNTVYLQMNSLKPEDTAVYYCAAAPLGACRKFAESAYWGQGTQVTVSSHHHHHH
modifications: biotin conjugated; 4NBX.B-biotin103 v186_Fr +1
With B7 as the molecule, how does the “KD / measured affinity against mSAWT” value [1] read?
Its value is “minimally different from the wildtype v186_Fr”.

B8: 4NBX.B-biotin103 v186_Fr − 1: v186_Fr with biotin103 moved to −1 position on CDR3, SEQ ID NO:8 (conjugate)
VHH: QVQLQESGGGLVQAGGSLRLSCAASGRTFSRSPMAWYRQPPGKEREFVAAGSSTGTTTYYADSVKGRFTISRDNAKNTVYLQMNSLKPEDTAVYYCAAAPLCAARKFAESAYWGQGTQVTVSSHHHHHH
modifications: biotin conjugated; 4NBX.B-biotin103 v186_Fr -1
Which “KD / measured affinity against mSAWT” value [1] does the source give for B8 here?
The value was “minimally different from the wildtype v186_Fr”.

B9: 4NBX.B-biotin103 v186 (VHH)
VHH: QVQLQESGGGLAQAGGSLRLSCAASGRTFSRSPMAWFRQPPGKEREFVAAGSSTGTTTYYADSVKGRFTISRDNAKNTVYLQMNSLKPEDTAVYYCAAAPLGCARKFAESAYWGQGTQVTVSS
Which results are given for B9?
Kd [3]: 0.33 nM; koff [3]: 0.00106 s⁻¹; kon [3]: 3.23e+06 M⁻¹ s⁻¹

B10: 4NBX.B-biotin103 v186_Fr -1 (VHH)
VHH: QVQLQESGGGLVQAGGSLRLSCAASGRTFSRSPMAWYRQPPGKEREFVAAGSSTGTTTYYADSVKGRFTISRDNAKNTVYLQMNSLKPEDTAVYYCAAAPLCAARKFAESAYWGQGTQVTVSS
notes: also called -1 variant of 4NBX.B-biotin103 v186_Fr
Which results are given for B10?
Kd [4]: 0.32 nM; koff [4]: 0.000986 s⁻¹; kon [4]: 3.13e+06 M⁻¹ s⁻¹

B11: 2X89.A-CCAA-biotin57 v5: final variant of 2X89.A-CCAA-biotin57 that accumulated 18 mutations, SEQ ID NO:14 (conjugate)
VHH: QVQLQESGGGLVQAGGSLRLSCAASGYTSSQYAMGWYRQAPGKEREWVATISAGADCTYYADSVKGRFTFSQDNAKNTVYLQMDSLKPEDTAVYYCATDSPLQATLITAKGGKGFQYWGQGTQVTVSSHHHHHH
What does the source list for B11?
aggregation / monomer stability on SEC [2]: eventually better than the 2X89.A-CCAA-biotin57 parent conjugate; koff / dissociation rate, in words [1]: relatively preserved

B12: 2X89.A-CCAA-biotin57: nanobody 2X89.A, intra-CDR disulfide replaced by two alanines, biotin conjugated to site 57, SEQ ID NO:10 (conjugate)
VHH: QVQLQESGGGSVQAGGSLRLSCAASGYTDSRYAMAWFRQAPGKEREWVARINSGRDCTYYADSVKGRFTFSQDNAKNTVYLQMDSLEPEDTATYYCATDIPLRARDIVAKGGDGFRYWGQGTQVTVSSHHHHHH
Which “aggregation / monomer stability on SEC” value [2] does the source give for B12 here?
Its value is “aggregated obviously”.

And the “koff / dissociation rate, in words” value [1]?
Its value is “especially slow dissociation rate; also recorded: slightly better than the best designed 4NBX.B variant v186_Fr”.

For B13, which Kd [5] is on record?
Its Kd is 10.5 nM.

What about the koff [5] of the same molecule?
The koff was 0.00372 s⁻¹.

And the kon [5]?
Its kon is 360000 M⁻¹ s⁻¹.

And the Kd [6]?
Its Kd is 7.85 nM.

And the koff [6]?
Its koff is 0.00334 s⁻¹.

What about the kon [6] of the same molecule?
The kon was 430000 M⁻¹ s⁻¹.

What about the Kd [7] of the same molecule?
The Kd was 10.4 nM.

And the koff [7]?
Its koff is 0.00366 s⁻¹.

What about the kon [7] of the same molecule?
The kon was 350000 M⁻¹ s⁻¹.

B14: 2X89.A-CCAA-biotin57 v37 (VHH)
VHH: QVQLQESGGGLVQAGGSLRLSCAASGYTDSRYAMGWYRQAPGKEREWVARISAGRDCTYYADSVKGRFTFSQDNAKNTVYLQMDSLKPEDTAVYYCATDIPLQATLITAKGGDGFRYWGQGTQVTVSS
Does B14 bind [8]?
Result: binds
